Numbering of substitutions follows the chain as printed. Names may count otherwise.
T1: CD20 (human, UniProt P11836 1-297)
T1 construct: whole, on cells; 2H7 is called murine anti-human CD20; also called CD20 presented on WIL-2S cells; CD20 on Ramos, BJAB, SU-DHL-6 and DoHH2 B cells
T1 sequence (looked up): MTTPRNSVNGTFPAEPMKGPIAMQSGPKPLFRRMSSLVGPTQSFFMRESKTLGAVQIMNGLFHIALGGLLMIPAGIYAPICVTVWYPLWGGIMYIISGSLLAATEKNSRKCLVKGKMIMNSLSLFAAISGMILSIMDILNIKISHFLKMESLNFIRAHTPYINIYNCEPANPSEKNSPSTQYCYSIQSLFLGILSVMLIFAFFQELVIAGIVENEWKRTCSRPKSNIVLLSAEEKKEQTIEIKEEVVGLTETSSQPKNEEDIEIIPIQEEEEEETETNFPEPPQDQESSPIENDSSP

B1: 2H7-sss-hIgG-H7-2e12 HL (bispecific antibody)
chain: QIVLSQSPAILSASPGEKVTMTCRASSSVSYMHWYQQKPGSSPKPWIYAPSNLASGVPARFSGSGSGTSYSLTISRVEAEDAATYYCQQWSFNPPTFGAGTKLELKDGGGSGGGGSGGGGSSQAYLQQSGAESVRPGASVKMSCKASGYTFTSYNMHWVKQTPRQGLEWIGAIYPGNGDTSYNQKFKGKATLTVDKSSSTAYMQLSSLTSEDSAVYFCARVVYYSNSYWYFDVWGTGTTVTVSEPKSSDKTHTSPPSPAPELLGGSSVFLFPPKPKDTLMISRTPEVTCVVVDVSHEDPEVKFNWYVDGVEVHNAKTKPREEQYNSTYRVVSVLTVLHQDWLNGKEYKCKVSNKALPASIEKTISKAKGQPREPQVYTLPPSRDELTKNQVSLTCLVKGFYPSDIAVEWESNGQPENNYKTTPPVLDSDGSFFLYSKLTVDKSRWQQGNVFSCSVMHEALHNHYTQKSLSLSPGKGCPPCPNSQVQLKESGPGLVAPSQSLSITCTVSGFSLTGYGVNWVRQPPGKGLEWLGMIWGDGSTDYNSALKSRLSITKDNSKSQVFLKMNSLQTDDTARYYCARDGYSNFHYYVMDYWGQGTSVTVSSGGGGSGGGGSGGGGSGGGGSDIVLTQSPASLAVSLGQRATISCRASESVEYYVTSLMQWYQQKPGQPPKLLISAASNVESGVPARFSGSGSGTDFSLNIHPVEEDDIAMYFCQQSRKVPWTFGGGTKLEIKR
notes: Assembled from modules as m11; also called 2H7-sss-IgG-H7-2e12-HL
B2: 2H7-sss-hIgG-L1-2e12 (H1 linker, 2e12 VL-VH) (bispecific antibody)
chain (part 1 of 2): QIVLSQSPAILSASPGEKVTMTCRASSSVSYMHWYQQKPGSSPKPWIYAPSNLASGVPARFSGSGSGTSYSLTISRVEAEDAATYYCQQWSFNPPTFGAGTKLELKDGGGSGGGGSGGGGSSQAYLQQSGAESVRPGASVKMSCKASGYTFTSYNMHWVKQTPRQGLEWIGAIYPGNGDTSYNQKFKGKATLTVDKSSSTAYMQLSSLTSEDSAVYFCARVVYYSNSYWYFDVWGTGTTVTVSEPKSSDKTHTSPPSP
chain (part 2 of 2): NSDIVLTQSPASLAVSLGQRATISCRASESVEYYVTSLMQWYQQKPGQPPKLLISAASNVESGVPARFSGSGSGTDFSLNIHPVEEDDIAMYFCQQSRKVPWTFGGGTKLEIKRGGGGSGGGGSGGGGSQVQLKESGPGLVAPSQSLSITCTVSGFSLTGYGVNWVRQPPGKGLEWLGMIWGDGSTDYNSALKSRLSITKDNSKSQVFLKMNSLQTDDTARYYCARDGYSNFHYYVMDYWGQGTSVTVSS
notes: Assembled from modules as m10; not shown: human IgG1 CH2-CH3
B3: 2H7-sss-hIgG P238S/P331S-H3-2e12 VHVL (bispecific antibody)
chain: QIVLSQSPAILSASPGEKVTMTCRASSSVSYMHWYQQKPGSSPKPWIYAPSNLASGVPARFSGSGSGTSYSLTISRVEAEDAATYYCQQWSFNPPTFGAGTKLELKDGGGSGGGGSGGGGSSQAYLQQSGAESVRPGASVKMSCKASGYTFTSYNMHWVKQTPRQGLEWIGAIYPGNGDTSYNQKFKGKATLTVDKSSSTAYMQLSSLTSEDSAVYFCARVVYYSNSYWYFDVWGTGTTVTVSEPKSSDKTHTSPPSPAPELLGGSSVFLFPPKPKDTLMISRTPEVTCVVVDVSHEDPEVKFNWYVDGVEVHNAKTKPREEQYNSTYRVVSVLTVLHQDWLNGKEYKCKVSNKALPASIEKTISKAKGQPREPQVYTLPPSRDELTKNQVSLTCLVKGFYPSDIAVEWESNGQPENNYKTTPPVLDSDGSFFLYSKLTVDKSRWQQGNVFSCSVMHEALHNHYTQKSLSLSPGKNYGGGGSGNSQVQLKESGPGLVAPSQSLSITCTVSGFSLTGYGVNWVRQPPGKGLEWLGMIWGDGSTDYNSALKSRLSITKDNSKSQVFLKMNSLQTDDTARYYCARDGYSNFHYYVMDYWGQGTSVTVSSGGGGSGGGGSGGGGSGGGGSDIVLTQSPASLAVSLGQRATISCRASESVEYYVTSLMQWYQQKPGQPPKLLISAASNVESGVPARFSGSGSGTDFSLNIHPVEEDDIAMYFCQQSRKVPWTFGGGTKLEIKR
notes: Assembled from modules as m11; also called 2H7-sss-hIgG-H3-2e12 HL
B4: 2H7-sss-hIgG P238S/P331S-H6-2e12 VHVL (bispecific antibody)
chain: QIVLSQSPAILSASPGEKVTMTCRASSSVSYMHWYQQKPGSSPKPWIYAPSNLASGVPARFSGSGSGTSYSLTISRVEAEDAATYYCQQWSFNPPTFGAGTKLELKDGGGSGGGGSGGGGSSQAYLQQSGAESVRPGASVKMSCKASGYTFTSYNMHWVKQTPRQGLEWIGAIYPGNGDTSYNQKFKGKATLTVDKSSSTAYMQLSSLTSEDSAVYFCARVVYYSNSYWYFDVWGTGTTVTVSEPKSSDKTHTSPPSPAPELLGGSSVFLFPPKPKDTLMISRTPEVTCVVVDVSHEDPEVKFNWYVDGVEVHNAKTKPREEQYNSTYRVVSVLTVLHQDWLNGKEYKCKVSNKALPASIEKTISKAKGQPREPQVYTLPPSRDELTKNQVSLTCLVKGFYPSDIAVEWESNGQPENNYKTTPPVLDSDGSFFLYSKLTVDKSRWQQGNVFSCSVMHEALHNHYTQKSLSLSPGKGGGGSGGGGSGGGGSGNSQVQLKESGPGLVAPSQSLSITCTVSGFSLTGYGVNWVRQPPGKGLEWLGMIWGDGSTDYNSALKSRLSITKDNSKSQVFLKMNSLQTDDTARYYCARDGYSNFHYYVMDYWGQGTSVTVSSGGGGSGGGGSGGGGSGGGGSDIVLTQSPASLAVSLGQRATISCRASESVEYYVTSLMQWYQQKPGQPPKLLISAASNVESGVPARFSGSGSGTDFSLNIHPVEEDDIAMYFCQQSRKVPWTFGGGTKLEIKR
notes: Assembled from modules as m11; The preparation held a share of cleaved, SMIP-sized molecules; also called 2H7-sss-hIgG-H6-2e12
B5: 2H7-sss-hIgG-STD1-G19-4 HL (bispecific antibody)
chain (part 1 of 2): B2 chain (part 1 of 2)
chain (part 2 of 2): NYGGGGSGGGGSGGGGSGNSEVQLQQSGPELVKPGASMKISCKASGYSFTGYIVNWLKQSHGKNLEWIGLINPYKGLTTYNQKFKGKATLTVDKSSSTAYMELLSLTSEDSAVYYCARSGYYGDSDWYFDVWGAGTTVTVSSGGGGSGGGGSGGGGSASDIQMTQTTSSLSASLGDRVTISCRASQDIRNYLNWYQQKPDGTVKLLIYYTSRLHSGVPSRFSGSGSGTDYSLTIANLQPEDIATYFCQQGNTLPWTFGGGTKLVTKRS
notes: Assembled from modules; also called 2H7sssIgG1-STD1-G19-4 HL; CD20-hIgG-CD3 multispecific molecule (SSS hinge, HL); not shown: human IgG1 CH2-CH3
B6: 2H7-csc-hIgG-STD1-G19-4 HL (bispecific antibody)
chain (part 1 of 2): B2 chain (part 1 of 2) with S248C, S257C
chain (part 2 of 2): B5 chain (part 2 of 2)
notes: Assembled from modules; also called CD20-hIgG-CD3 multispecific molecule (CSC hinge, HL); not shown: human IgG1 CH2-CH3
B7: 2H7-sss-hIgG-STD1-G19-4 LH (bispecific antibody)
chain (part 1 of 2): B2 chain (part 1 of 2)
chain (part 2 of 2): NYGGGGSGGGGSGGGGSGNSDIQMTQTTSSLSASLGDRVTISCRASQDIRNYLNWYQQKPDGTVKLLIYYTSRLHSGVPSRFSGSGSGTDYSLTIANLQPEDIATYFCQQGNTLPWTFGGGTKLVTKRGGGGSGGGGSGGGGSASEVQLQQSGPELVKPGASMKISCKASGYSFTGYIVNWLKQSHGKNLEWIGLINPYKGLTTYNQKFKGKATLTVDKSSSTAYMELLSLTSEDSAVYYCARSGYYGDSDWYFDVWGAGTTVTVSS
notes: Assembled from modules; also called 2H7sssIgG1-STD1-G19-4 LH; CD20-hIgG-CD3 multispecific molecule (LH); not shown: human IgG1 CH2-CH3

Legend:
[1] = target: T2, CD28 presented on CHO cells (UniProt P10747 19-220, limits assumed); assay: flow cytometry, lower graph taken as panel B of the legend = CD28 CHO cells; FITC goat anti-human IgG [lower graph]
T2 construct: whole, on cells; also called CD28 CHO; CD28-expressing CHO cells
Procedure: (§1) Seeded plates containing the proteins were incubated on ice for one hour. Subsequently, the wells were washed once with 200 μl 1% FBS in PBS. Goat anti-human antibody labeled with FITC (Fc Sp) at 1:100 was then added to each well, and the plates were again incubated on ice for one hour. The plates were then washed once with 200 μl 1% FBS in PBS and the cells were re-suspended in 200 μl 1% FBS and analyzed by FACS.
(§2) To assess the binding properties of the anti-CD28 peptide 2E12 VHVL, CD28-expressing CHO cells were plated by seeding in individual wells of a culture plate. […] The 2E12IgGvHvL SMIP purified protein was added to individual seeded wells, again using a two-fold dilution scheme, i.e., from 20 μg/ml down to […]. One well received no protein to provide a background control. The plates were then incubated on ice for one hour, washed once with 200 μl 1% FBS in PBS, and goat anti-human antibody labeled with FITC (Fc Sp) at 1:100 was added to each well. The plates were again incubated on ice for one hour and subsequently washed once with 200 μl 1% FBS in PBS. Following re-suspension of the cells in 200 μl 1% FBS, FACS analysis was performed.

[2] = target: T1, CD20; assay: flow cytometry, upper graph taken as panel A of the legend = WIL-2S cells (CD20); FITC goat anti-human IgG [upper graph]
Procedure: as §1, §2

[3] = target: T3, CD28mIgG (UniProt P10747 19-152); assay: sandwich flow cytometry: fusion protein titrated on WIL-2S cells (held by CD20), then CD28mIgG, then FITC anti-mouse
T3 construct: Bought reagent; the construct is not described; also called CD28Ig (Ancell); CD28 fused to mouse antibody; not shown: mouse Ig part of the bought fusion; not described

[4] = target: T1, CD20; assay: flow cytometry on WIL2-S cells (CD20), protein A purified protein at 0.72 ug/ml, FITC goat anti-human IgG
Procedure: “L1-L6” refers to the 2H7-sss-hIgG-Lx-2e12 molecules where […] represents the L1-L6 linkers and the 2e12 V regions in the orientation of VL-VH. All the molecules were tested at a concentration of 0.72 μg/ml, and the binding detected using FITC conjugated goat anti-human IgG at 1:100.

[5] = target: T1, CD20; assay: flow cytometry on WIL2S cells (CD20), FITC goat anti-human IgG; no unit printed on the axis (legend: ug/ml)

Row | Binder | EC50 (read off the curve) [1] [µg/mL] | EC50 (read off the curve) [2] [µg/mL] | EC50 (read off the curve) [3] [µg/mL] | binding result [4] | binding result [5]
1 | B1 | ~0.5 | ~1 | ~0.3 |  | 
2 | B2 |  |  |  | binds | 
3 | B3 | ~0.8 | ~1 | ~0.4 |  | 
4 | B4 | ~0.8 | ~1 | ~0.3 |  | 
5 | B5 |  |  |  |  | binds
6 | B6 |  |  |  |  | binds
7 | B7 |  |  |  |  | binds

Source: patent publication US20140154252A1 (EMERGENT PRODUCT DEVELOPMENT SEATTLE, published 2014)
